# Test results published in patent US20100323904, “Transcription chip” (published 2010).
# T1: Vitamin D receptor (VDR) (UniProt P11473 P11473:1-427)
# T1 sequence: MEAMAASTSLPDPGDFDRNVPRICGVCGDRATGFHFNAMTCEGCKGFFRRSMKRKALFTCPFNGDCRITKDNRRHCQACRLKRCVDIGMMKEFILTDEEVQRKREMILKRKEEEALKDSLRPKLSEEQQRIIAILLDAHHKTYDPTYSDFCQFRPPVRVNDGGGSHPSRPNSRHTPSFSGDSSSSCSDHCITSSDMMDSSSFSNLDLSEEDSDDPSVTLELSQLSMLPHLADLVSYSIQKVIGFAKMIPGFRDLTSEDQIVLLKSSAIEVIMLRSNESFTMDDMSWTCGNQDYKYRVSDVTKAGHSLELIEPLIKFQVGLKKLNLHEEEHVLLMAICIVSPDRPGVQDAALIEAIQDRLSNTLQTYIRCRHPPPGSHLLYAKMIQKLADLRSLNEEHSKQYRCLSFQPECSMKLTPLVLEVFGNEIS
# B1: CRE (dsDNA)
# DNA 1: GGGAGCTGAGTATGACGTCAATGCATGCTGACGTCACATG
# DNA 2: CATGTGACGTCAGCATGCATTGACGTCATACTCAGCTCCC
# modifications: 5'-NH2(CH2)12 on top strand, immobilized on chip
# B2: PRD II (two copies) (dsDNA)
# DNA 1: GGGAGCTGAGTAGGGAAATTCCATGCATGCGGGAAATTCCCATG
# DNA 2: CATGGGAATTTCCCGCATGCATGGAATTTCCCTACTCAGCTCCC
# modifications: 5'-NH2(CH2)12 on top strand, immobilized on chip
# B3: VDRE (dsDNA)
# DNA 1: GGGAGCTGAGTAAGGTCAAGGAGGTCAATGCATGCAGGTCAAGGAGGTCACATG
# DNA 2: CATGTGACCTCCTTGACCTGCATGCATTGACCTCCTTGACCTTACTCAGCTCCC
# modifications: 5'-NH2(CH2)12 on top strand, immobilized on chip
# B4: RARE (dsDNA)
# DNA 1: GGGAGCTGAGTAAGGTCACCAGGAGGTCAATGCATGCAGGTCACCAGGAGGTCACATG
# DNA 2: CATGTGACCTCCTGGTGACCTGCATGCATTGACCTCCTGGTGACCTTACTCAGCTCCC
# modifications: 5'-NH2(CH2)12 on top strand, immobilized on chip
# B5: TRE (dsDNA)
# DNA 1: GGGAGCTGAGTAAGGTCATGACCTATGCATGCAGGTCATGACCTCATG
# DNA 2: CATGAGGTCATGACCTGCATGCATAGGTCATGACCTTACTCAGCTCCC
# modifications: 5'-NH2(CH2)12 on top strand, immobilized on chip
# B6: IgkB (two copies) (dsDNA)
# DNA 1: GGGAGCTGAGTAGGGGATCCCATGCATGCGGGGATCCCCATG
# DNA 2: CATGGGGATCCCCGCATGCATGGGATCCCCTACTCAGCTCCC
# modifications: 5'-NH2(CH2)12 on top strand, immobilized on chip
# B7: AP1 (dsDNA)
# DNA 1: GGGAGCTGAGTATGACTCATATGCATGCTGACTCATCATG
# DNA 2: CATGATGAGTCAGCATGCATATGAGTCATACTCAGCTCCC
# modifications: 5'-NH2(CH2)12 on top strand, immobilized on chip
# How the values were obtained:
# [1] = molecular target: T2, NF-kB p50 (UniProt P19838 P19838:1-433); experiment: array fluorescence immunoassay, 100 ng/mL; conditions: tags: Promega; chain copies: 2
# Procedure: (§1) After washing twice with the washing buffer, NFκB diluted at 100 ng/mL with the binding buffer was added, and shaken at room temperature for one hour. After washing three times with the washing buffer, anti-NFκB antibody (RCK) diluted 100 times with antibody diluting buffer was added, and shaken at room temperature for one hour. After washing twice with the washing buffer, FITC-labeled anti-rabbit IgG antibody diluted 50 times with the antibody diluting buffer was added, and shaken at room temperature for one hour. After washing twice with the washing buffer, at a fluorescence wavelength of 535 nm based on Fluorescence of FITC excited with laser at a wavelength of 473 nm, fluorescent intensity was detected by CRBIO II microarray scanner.
# The oligonucleotides comprising 9 element sequences, PRD II, AP1, p53, VDRE, RARE, CRE, TRE, GRE and ERE which were not labeled with FITC were similarly immobilized on the DLC chip. NFκB (100 ng/mL) was added to the DLC chip on which these 9 transcription factors had been arrayed, and detected by fluorescence immunoassay. As a result, the fluorescence was detected only from the oligonucleotide comprising PRD II which was the NFκB recognition sequence. […] Therefore, it is possible to construct the system in which multiple transcription factors are simultaneously detected in a sample in a small amount by combining antibodies which specifically recognize the transcription factors which is bound to the other element sequences.
# [2] = molecular target: T2, NF-kB p50; experiment: ELISA; on-chip ELISA; detected down to 1.0 ng/mL (DLC) and 0.33 ng/mL (GeneDia); 1% BSA, 10 mM HEPES pH 7.5, salmon sperm DNA, 2 mM DTT, room temperature; also fluorescence immunoassay on array; conditions: tags: Promega; chain copies: 2
# Procedure: (§2) The plate was washed twice with the washing buffer, NFκB at various concentrations diluted with the binding buffer was added, and the plate was shaken at room temperature for one hour. The plate was washed three times with the washing buffer, anti-NFκB antibody diluted 2000 times with antibody diluting buffer was added, and the plate was shaken at room temperature for one hour. The plate was washed three times with the washing buffer, POD-labeled anti-rabbit IgG secondary antibody diluted 2000 times with the antibody diluting buffer was added, and the plate was shaken at room temperature for one hour. The plate was washed five times with the washing buffer, and subsequently absorbance at a wavelength of 450 nm based on the absorbance of TMBZ which was a color development substrate of POD was measured by a microplate reader.
# (§3) In order to investigate an ELISA condition for NFκB, the double-stranded DNA comprising the element DNA sequence different in length and copy number were synthesized by the PCR method or a synthetic method, and analyzed. When PRD II-1 comprising one copy of the PRD II sequence was compared with PRD II-2, the immobilized PRD II-2 was more excellent in efficiency of trapping NFκB (FIG. 5). […]
# [3] = molecular target: T1, Vitamin D receptor (VDR); experiment: 500 fmol/chip; captured VDR detected by on-chip trypsin digestion and MALDI-TOF MS
# Procedure: Next, the on-chip digestion of 500 fmol/chip of vitamin D receptor was performed using trypsin (1 μg/mL) on the chip on which the element sequence VDRE which was the recognition sequence of the vitamin D receptor had been immobilized. Subsequently, the sample was added to the MALDI plate, and consequently, the same peptide map as that obtained by trypsin digestion of the sample in the solution was obtained as is the case with NFκB (FIGS. 16 and 17).
# [4] = molecular target: T2, NF-kB p50; experiment: ELISA; trapping equivalent to or more than PRD II-2; conditions: tags: Promega; chain copies: 2; label: 5'-FITC on bottom strand
# Procedure: as §2, §3
# [5] = molecular target: T2, NF-kB p50; experiment: array fluorescence immunoassay, 100 ng/mL; in ELISA about 30-50% background color before blocking optimisation; conditions: tags: Promega; chain copies: 2
# Procedure: as §1
# The oligonucleotides comprising 9 element sequences, PRD II, AP1, p53, VDRE, RARE, CRE, TRE, GRE and ERE which were not labeled with FITC were similarly immobilized on the DLC chip. NFκB (100 ng/mL) was added to the DLC chip on which these 9 transcription factors had been arrayed, and detected by fluorescence immunoassay. As a result, the fluorescence was detected only from the oligonucleotide comprising PRD II which was the NFκB recognition sequence. […]
# T2 sequence (P19838 1-433, one chain of several): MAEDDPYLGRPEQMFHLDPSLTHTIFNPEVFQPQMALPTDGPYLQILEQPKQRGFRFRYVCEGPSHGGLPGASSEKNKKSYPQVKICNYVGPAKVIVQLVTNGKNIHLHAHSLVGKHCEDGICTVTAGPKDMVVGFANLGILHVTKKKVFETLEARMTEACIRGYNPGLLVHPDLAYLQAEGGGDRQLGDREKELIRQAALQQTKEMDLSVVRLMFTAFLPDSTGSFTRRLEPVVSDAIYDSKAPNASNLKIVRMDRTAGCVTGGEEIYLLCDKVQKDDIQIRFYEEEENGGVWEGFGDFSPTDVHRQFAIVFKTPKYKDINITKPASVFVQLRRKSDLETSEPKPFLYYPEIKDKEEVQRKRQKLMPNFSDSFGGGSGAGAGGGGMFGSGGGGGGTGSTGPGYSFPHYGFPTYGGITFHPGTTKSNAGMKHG
Binder,binding result [1],further results
B1,no binding,
B2,,binding result [2]: binds
B3,no binding,binding result [3]: binds
B4,no binding,
B5,no binding,
B6,,binding result [4]: binds
B7,,binding result [5]: no binding
